Tests used:
[1] = substrate: NC(=O)c1cc(N2CC2)c([N+](=O)[O-])cc1[N+](=O)[O-]; test: Activity against Escherichia coli nitroreductase
[2] = target: Oxygen-insensitive NAD(P)H nitroreductase NfsB (Escherichia coli) (UniProt P38489); test: Activity against Escherichia coli nitroreductase

B1: Oxygen-insensitive NAD(P)H nitroreductase (Escherichia coli K-12), P38489 (protein)
chain: MDIISVALKRHSTKAFDASKKLTPEQAEQIKTLLQYSPSSTNSQPWHFIVASTEEGKARVAKSAAGNYVFNERKMLDASHVVVFCAKTAMDDVWLKLVVDQEDADGRFATPEAKAANDKGRKFFADMHRKDLHDDAEWMAKQVYLNVGNFLLGVAALGLDAVPIEGFDAAILDAEFGLKEKGYTSLVVVPVGHHSVEDFNATLPKSRLPQNITLTEV
Protein B1 has a Km [1] of 881 µM and a Km [2] of 195 µM.

From ChEMBL document CHEMBL1138079
